Assay results from IntAct's records for PubMed 19037309.

B1: DELLA protein GAI (Arabidopsis thaliana (Mouse-ear cress)), Q9LQT8 (parent)
chain: MKRDHHHHHHQDKKTMMMNEEDDGNGMDELLAVLGYKVRSSEMADVAQKLEQLEVMMSNVQEDDLSQLATETVHYNPAELYTWLDSMLTDLNPPSSNAEYDLKAIPGDAILNQFAIDSASSSNQGGGGDTYTTNKRLKCSNGVVETTTATAESTRHVVLVDSQENGVRLVHALLACAEAVQKENLTVAEALVKQIGFLAVSQIGAMRKVATYFAEALARRIYRLSPSQSPIDHSLSDTLQMHFYETCPYLKFAHFTANQAILEAFQGKKRVHVIDFSMSQGLQWPALMQALALRPGGPPVFRLTGIGPPAPDNFDYLHEVGCKLAHLAEAIHVEFEYRGFVANTLADLDASMLELRPSEIESVAVNSVFELHKLLGRPGAIDKVLGVVNQIKPEIFTVVEQESNHNSPIFLDRFTESLHYYSTLFDSLEGVPSGQDKVMSEVYLGKQICNVVACDGPDRVERHETLSQWRNRFGSAGFAAAHIGSNAFKQASMLLALFNGGEGYRVEESDGCLMLGWHTRPLIATSAWKLSTN
partner: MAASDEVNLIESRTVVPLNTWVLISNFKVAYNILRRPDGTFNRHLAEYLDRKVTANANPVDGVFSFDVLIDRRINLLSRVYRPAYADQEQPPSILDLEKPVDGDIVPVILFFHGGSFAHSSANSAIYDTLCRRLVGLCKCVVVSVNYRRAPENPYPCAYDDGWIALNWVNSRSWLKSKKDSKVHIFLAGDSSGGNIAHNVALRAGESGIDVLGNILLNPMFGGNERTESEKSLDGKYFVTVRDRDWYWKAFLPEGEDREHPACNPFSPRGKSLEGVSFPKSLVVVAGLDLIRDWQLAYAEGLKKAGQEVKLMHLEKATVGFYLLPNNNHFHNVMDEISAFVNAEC

Variants of: B1
Conditions: with gid1a_arath GID1A

| Variant | effect of a mutation on the interaction |
| --- | --- |
| MKRDHHHHHHQDKKTMMMNEEDDGNGMDELAAVLGYKARSSEMADVAQKLEQLEVMMSNVQEDDLSQLATETVHYNPAELYTWLDSMLTDLNPPSSNAEYDLKAIPGDAILNQFAIDSASSSNQGGGGDTYTTNKRLKCSNGVVETTTATAESTRHVVLVDSQENGVRLVHALLACAEAVQKENLTVAEALVKQIGFLAVSQIGAMRKVATYFAEALARRIYRLSPSQSPIDHSLSDTLQMHFYETCPYLKFAHFTANQAILEAFQGKKRVHVIDFSMSQGLQWPALMQALALRPGGPPVFRLTGIGPPAPDNFDYLHEVGCKLAHLAEAIHVEFEYRGFVANTLADLDASMLELRPSEIESVAVNSVFELHKLLGRPGAIDKVLGVVNQIKPEIFTVVEQESNHNSPIFLDRFTESLHYYSTLFDSLEGVPSGQDKVMSEVYLGKQICNVVACDGPDRVERHETLSQWRNRFGSAGFAAAHIGSNAFKQASMLLALFNGGEGYRVEESDGCLMLGWHTRPLIATSAWKLSTN [L31A;V38A] | disrupting interaction |
| MKRDHHHHHHQDKKTMMMNEEDDGNGMDELLAVLGAKVRSSEMADVAQKLEQLEVMMSNVQEDDLSQLATETVHYNPAELYTWLDSMLTDLNPPSSNAEYDLKAIPGDAILNQFAIDSASSSNQGGGGDTYTTNKRLKCSNGVVETTTATAESTRHVVLVDSQENGVRLVHALLACAEAVQKENLTVAEALVKQIGFLAVSQIGAMRKVATYFAEALARRIYRLSPSQSPIDHSLSDTLQMHFYETCPYLKFAHFTANQAILEAFQGKKRVHVIDFSMSQGLQWPALMQALALRPGGPPVFRLTGIGPPAPDNFDYLHEVGCKLAHLAEAIHVEFEYRGFVANTLADLDASMLELRPSEIESVAVNSVFELHKLLGRPGAIDKVLGVVNQIKPEIFTVVEQESNHNSPIFLDRFTESLHYYSTLFDSLEGVPSGQDKVMSEVYLGKQICNVVACDGPDRVERHETLSQWRNRFGSAGFAAAHIGSNAFKQASMLLALFNGGEGYRVEESDGCLMLGWHTRPLIATSAWKLSTN [Y36A] | decreasing interaction |
| MKRDHHHHHHQDKKTMMMNEEDDGNGMDELLAVLGAKVRSSEAADVAQKLEQLEVMMSNVQEDDLSQLATETVHYNPAELYTWLDSMLTDLNPPSSNAEYDLKAIPGDAILNQFAIDSASSSNQGGGGDTYTTNKRLKCSNGVVETTTATAESTRHVVLVDSQENGVRLVHALLACAEAVQKENLTVAEALVKQIGFLAVSQIGAMRKVATYFAEALARRIYRLSPSQSPIDHSLSDTLQMHFYETCPYLKFAHFTANQAILEAFQGKKRVHVIDFSMSQGLQWPALMQALALRPGGPPVFRLTGIGPPAPDNFDYLHEVGCKLAHLAEAIHVEFEYRGFVANTLADLDASMLELRPSEIESVAVNSVFELHKLLGRPGAIDKVLGVVNQIKPEIFTVVEQESNHNSPIFLDRFTESLHYYSTLFDSLEGVPSGQDKVMSEVYLGKQICNVVACDGPDRVERHETLSQWRNRFGSAGFAAAHIGSNAFKQASMLLALFNGGEGYRVEESDGCLMLGWHTRPLIATSAWKLSTN [Y36A;M43A] | disrupting interaction |
| MKRDHHHHHHQDKKTMMMNEEDDGNGMDELLAVLGYKVRSSEMADVAQKLRQLRVMMSNVQEDDLSQLATETVHYNPAELYTWLDSMLTDLNPPSSNAEYDLKAIPGDAILNQFAIDSASSSNQGGGGDTYTTNKRLKCSNGVVETTTATAESTRHVVLVDSQENGVRLVHALLACAEAVQKENLTVAEALVKQIGFLAVSQIGAMRKVATYFAEALARRIYRLSPSQSPIDHSLSDTLQMHFYETCPYLKFAHFTANQAILEAFQGKKRVHVIDFSMSQGLQWPALMQALALRPGGPPVFRLTGIGPPAPDNFDYLHEVGCKLAHLAEAIHVEFEYRGFVANTLADLDASMLELRPSEIESVAVNSVFELHKLLGRPGAIDKVLGVVNQIKPEIFTVVEQESNHNSPIFLDRFTESLHYYSTLFDSLEGVPSGQDKVMSEVYLGKQICNVVACDGPDRVERHETLSQWRNRFGSAGFAAAHIGSNAFKQASMLLALFNGGEGYRVEESDGCLMLGWHTRPLIATSAWKLSTN [E51R;E54R] | disrupting interaction |
